Values of other authors, collected in publication PMC7788954.

Biological target: Sans SAM-PBM (Homo sapiens) (UniProt Q495M9)
Sequence (Q495M9 388-461): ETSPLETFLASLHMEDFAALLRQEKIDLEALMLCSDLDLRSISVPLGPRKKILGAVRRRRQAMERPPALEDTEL

Chain of harmonin N-terminal HHD-containing supramodule (Q9Y6N9 1-192): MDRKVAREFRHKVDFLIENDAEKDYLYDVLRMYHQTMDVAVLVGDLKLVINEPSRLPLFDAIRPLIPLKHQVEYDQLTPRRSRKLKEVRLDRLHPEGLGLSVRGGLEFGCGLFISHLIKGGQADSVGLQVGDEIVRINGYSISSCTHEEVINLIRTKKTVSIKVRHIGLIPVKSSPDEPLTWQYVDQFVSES

Kd: 1 nM
Substance: harmonin N-terminal HHD-containing supramodule (from UniProt Q9Y6N9)
